Consider six molecules from patent US20120251547A1 (Amgen, published 2012).

Where two headings read alike, the source gives them in different places.

The target in assay [1] is T1, cynomolgus IL-17RA, on cells (cynomolgus).
T1 construct: whole, on cells; also called CHO-cynoIL-17RA; cyno IL-17RA+ CHO cells
Description: FACS competition: non-clonal supernatant inhibiting biotin-huIL-17A (competitor) binding to cyno IL-17RA+ CHO cells.

Assay [2] deals with T2, huIL-17RA-FLAG-polyHis (human, UniProt Q96F46 33-320).
T2 construct: also called IL-17RA-FLAG-pHis; wild-type IL-17RA
Description: binning; IL-17RA held by bead mAb A.

Assay [3] has as its target T2, huIL-17RA-FLAG-polyHis. Description: binning; IL-17RA held by bead mAb J.
Assay [4] deals with T3, human IL-17RA, full-length, on cells (human, UniProt Q96F46 33-866). The assay can be described thus: cell-based or functional assay.
Assay [5] deals with T2, huIL-17RA-FLAG-polyHis. The assay can be described thus: binning; IL-17RA held by bead mAb K.
Assay [6] addresses T2, huIL-17RA-FLAG-polyHis. The assay can be described thus: binning; IL-17RA held by bead mAb R.
For assay [7], the target named is T2, huIL-17RA-FLAG-polyHis. The assay can be described thus: binning; IL-17RA held by bead mAb E.
Assay [8] concerns the target T2, huIL-17RA-FLAG-polyHis. Description: binning; IL-17RA held by bead mAb L.
Assay [9] concerns the target human IL-17RA (form used in the low resolution BIAcore not stated) (human, UniProt Q96F46 33-320, limits assumed). The assay can be described thus: low resolution BIAcore, subcloned hybridoma. (In SPR one partner is held on a chip, and binding of the other changes the refractive index at the surface.)
The target of assay [10] is T2, huIL-17RA-FLAG-polyHis. The assay can be described thus: binning; IL-17RA held by bead mAb N.
In assay [11] the target is T2, huIL-17RA-FLAG-polyHis. The assay can be described thus: binning; IL-17RA held by bead mAb F.
In assay [12] the target is T2, huIL-17RA-FLAG-polyHis. Description: binning; IL-17RA held by bead mAb Q.
In assay [13] the target is T2, huIL-17RA-FLAG-polyHis. The assay can be described thus: binning; IL-17RA held by bead mAb G.
The target in assay [14] is T1, cynomolgus IL-17RA, on cells. Description: FACS competition: non-clonal supernatant inhibiting biotin-huIL-17A (competitor) binding to cyno IL-17RA+ CHO cells. The source holds these as a separate data set.
The target in assay [15] is T3, human IL-17RA, full-length, on cells. Description: cell-based or functional assay. The source holds these as a separate data set.
The target of assay [16] is T2, huIL-17RA-FLAG-polyHis. Description: binning; IL-17RA held by bead mAb M.
Assay [17] addresses T2, huIL-17RA-FLAG-polyHis. The assay can be described thus: binning; IL-17RA held by bead mAb O.
The target in assay [18] is T2, huIL-17RA-FLAG-polyHis. Description: binning; IL-17RA held by bead mAb H.
In assay [19] the target is T2, huIL-17RA-FLAG-polyHis. The assay can be described thus: binning; IL-17RA held by bead mAb P.
The target in assay [20] is T2, huIL-17RA-FLAG-polyHis. The assay can be described thus: binning; IL-17RA held by bead mAb D.
Assay [21] has as its target T2, huIL-17RA-FLAG-polyHis. Description: binning; IL-17RA held by bead mAb B.
In assay [22] the target is T2, huIL-17RA-FLAG-polyHis. The assay can be described thus: binning; IL-17RA held by bead mAb C.
In assay [23] the target is T2, huIL-17RA-FLAG-polyHis. Description: binning; IL-17RA held by bead mAb I.

B1: AMH5/AML5 (antibody, IgG2, V domains shown)
VH: QVQLQESGPGLVKPSETLPLTCTVSGGSIRSYYWSWIRQPAGKGLEWIGRIYRSGNTIYNPSLKSRVTMSIDTSKNQFSLTLSSVTAADTAVYYCARENYSESSGLYYYYGMDVWGQGTTVTVSS
VL: DIQMTQSPSSLSASVGDRVTITCRASQGIRNDLGWYQQKPGKAPKRLIYAASSFQSGVPSRFSGSGSGTGFTLTISSLQPEDFATYYCLQHNSYPPTFGQGTKVEIK
notes: human mAb from IgG2 XenoMouse mice; tested only as part of a non-clonal hybridoma supernatant; also called AM-5
Consider B1, for which, in assay [1], the MFI stood at 9.

B2: AMH1/AML1 (antibody, IgG2, V domains shown)
VH: QVQLQESGPGLVKPSETLSLTCTVSGGSISNYYWNWIRQSPGKGLEWIGDIYYSGSTNYNPSLKSRVTISVDTSKNQFSLKLSSVTTADTAVYYCARDGELANYYGSGSYQFYYYYGMDVWGQGTTVTVSS
VL: DILMTQSPSSLSASVGDRVTITCRASQGIRNDLGWYQQKPGKAPKRLIYAASSLQSGVPSRFSGSGSGTEFTLTISSLQPEDFATYYCLQHNSNPFTFGPGTKVDIK
notes: human mAb from IgG2 XenoMouse mice; also called AM-1; antibody H
Molecule B2 showed an MFI in [1] of 11.

B3: AMH12/AML12 (antibody, IgG2, V domains shown)
VH: QVQLVQSGAEVKKPGASVKVSCKASGYTLTSYGISWVRQAPGQGLEWMGWISTYKGNTNYAQKLQGRVTMTTDTSTSTAYMELRSLRSDDTAVYYCARKQLVFDYWGQGTLVTVSS
VL: EIVMTQSPATLSVSPGERATLSCRASQSISSSLAWYQQKPGQAPRLLIYGASTRATGIPARFSGSGSGTEFTLTISSLQSENFAVYYCQQYDNWPLTFGGGTKVEIK
notes: human mAb from IgG2 XenoMouse mice; also called AM-12; antibody M
For the molecule B3, the “normalized MFI” value was 1940 in the assay with huIL-17RA-FLAG-polyHis [2]; 31 with huIL-17RA-FLAG-polyHis [3]; -5 with huIL-17RA-FLAG-polyHis [5]; 40 with huIL-17RA-FLAG-polyHis [6]; 765 with huIL-17RA-FLAG-polyHis [7]; 18 with huIL-17RA-FLAG-polyHis [8]. The “normalized MFI” value with huIL-17RA-FLAG-polyHis [10] is 11; in the assay with huIL-17RA-FLAG-polyHis [11] it was 1410; in the assay with huIL-17RA-FLAG-polyHis [12], 60; in the assay with huIL-17RA-FLAG-polyHis [13] it was 3280; with huIL-17RA-FLAG-polyHis [16], 20; with huIL-17RA-FLAG-polyHis [17] it was 49. For the same molecule, the “normalized MFI” value with huIL-17RA-FLAG-polyHis [18] was found to be 73; in the assay with huIL-17RA-FLAG-polyHis [19], 1900; in the assay with huIL-17RA-FLAG-polyHis [20], 888; in the assay with huIL-17RA-FLAG-polyHis [21] it was 455; in the assay with huIL-17RA-FLAG-polyHis [22], 3040; with huIL-17RA-FLAG-polyHis [23], 26. For the same molecule, the “IL-17A/HFF bioassay IC50, subclone 17” value in assay [4] came to 3.5 nM. In addition, the “IL-17A/HFF bioassay IC50, subclone 18” value in assay [4] was 3.7 nM. Besides, the “IL-17A/HFF bioassay IC50, subclone 20” value in [4] amounted to 5.5 nM. Moreover, the Kd in [9] turned out to be 8.2 nM. In assay [14], this molecule had an MFI of 6. Besides, in [15], the “% inhibition of IL-6 Production, IL-17A/HFF bioassay, non-clonal supernatant 1:4” value turned out to be 75%. Further, the “% inhibition of IL-6 Production, IL-17A/HFF bioassay, non-clonal supernatant 1:32” value in assay [15] was 82%. Also, the “% inhibition of IL-6 Production, IL-17A/HFF bioassay, non-clonal supernatant 1:128” value in assay [15] was 61%.

B4: AMH17/AML17 (antibody, V domains shown)
VH: QVQLVQSGAEVKKPGAAVKVSCKATGYTLTSYGISWVRQAPGQGLEWMGWISAYSGNTKYAQKLQGRVTMTTDTSTSTAYMELRSLRSDDTAVYYCARKQLVFDYWGQGTLVTVSS
VL: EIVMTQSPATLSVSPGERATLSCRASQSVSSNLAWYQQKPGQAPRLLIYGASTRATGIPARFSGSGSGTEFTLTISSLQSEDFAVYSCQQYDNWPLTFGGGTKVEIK
notes: human mAb from IgG2 XenoMouse mice; also called AM-17; antibody N
For B4, the “normalized MFI” value with huIL-17RA-FLAG-polyHis [2] was 2470; in the assay with huIL-17RA-FLAG-polyHis [3], 8; in the assay with huIL-17RA-FLAG-polyHis [5], -44; in the assay with huIL-17RA-FLAG-polyHis [6] it was 76; with huIL-17RA-FLAG-polyHis [7] it was 999; in the assay with huIL-17RA-FLAG-polyHis [8], -1. The “normalized MFI” value with huIL-17RA-FLAG-polyHis [10] was 43; with huIL-17RA-FLAG-polyHis [11], 1920; in the assay with huIL-17RA-FLAG-polyHis [12], 98; with huIL-17RA-FLAG-polyHis [13], 4260; with huIL-17RA-FLAG-polyHis [16], 40; in the assay with huIL-17RA-FLAG-polyHis [17] it was 55. The “normalized MFI” value turned out to be 68 with huIL-17RA-FLAG-polyHis [18]; 2470 with huIL-17RA-FLAG-polyHis [19]; 1200 with huIL-17RA-FLAG-polyHis [20]; 597 in the assay with huIL-17RA-FLAG-polyHis [21]; 3980 with huIL-17RA-FLAG-polyHis [22]; 18 with huIL-17RA-FLAG-polyHis [23]. The “IL-17A/HFF bioassay IC50, subclone 21” value in assay [4] was 2.5 nM. For the same molecule, in [4], the “IL-17A/HFF bioassay IC50, subclone 22” value was 5.3 nM. Further, in assay [4], the “IL-17A/HFF bioassay IC50, subclone 23” value worked out at 0.57 nM. Further, the Kd in [9] worked out at 8.2 nM. Further, the MFI in assay [14] turned out to be 8. Also, the “% inhibition of IL-6 Production, IL-17A/HFF bioassay, non-clonal supernatant 1:4” value in assay [15] was found to be 90%. Also, the “% inhibition of IL-6 Production, IL-17A/HFF bioassay, non-clonal supernatant 1:32” value in [15] was 81%. Further, the “% inhibition of IL-6 Production, IL-17A/HFF bioassay, non-clonal supernatant 1:128” value in [15] came to 73%.

B5: AMH11/AML11 (antibody, IgG2, V domains shown)
VH: QVQLVESGGGVVQPGRSLRLSCATSGITFSSYGMHWVRQAPGKGLEWVAVIWYDGSNKYYADSVKGRFTISRDNSKNTLYLQMNSLRAEDTAVYYCARDTKDYWGQGTLVTVSS
VL: EIVMTQSPATLSVSPGERATLSCRASQSVSSNLAWYQQKPGQAPRLLIYGASTRAAGIPARFSGGGSGTAFTLTISNLQSEDFAVYYCQHYINWPKWTFGQGTKVDIK
notes: human mAb from IgG2 XenoMouse mice; also called AM-11; antibody A
Consider B5, for which the “normalized MFI” value with huIL-17RA-FLAG-polyHis [2] is -220; with huIL-17RA-FLAG-polyHis [3] it was 2320; with huIL-17RA-FLAG-polyHis [5], 7210; with huIL-17RA-FLAG-polyHis [6], 7060; in the assay with huIL-17RA-FLAG-polyHis [7] it was 300; with huIL-17RA-FLAG-polyHis [8], 3020. In addition, the “normalized MFI” value in the assay with huIL-17RA-FLAG-polyHis [10] came to 2650; in the assay with huIL-17RA-FLAG-polyHis [11] it was 345; in the assay with huIL-17RA-FLAG-polyHis [12] it was 9650; with huIL-17RA-FLAG-polyHis [13], 454; with huIL-17RA-FLAG-polyHis [16], 1860; with huIL-17RA-FLAG-polyHis [17], 3800. Also, the “normalized MFI” value in the assay with huIL-17RA-FLAG-polyHis [18] was 8640; with huIL-17RA-FLAG-polyHis [19] it was 6590; in the assay with huIL-17RA-FLAG-polyHis [20], 337; with huIL-17RA-FLAG-polyHis [21], 1200; in the assay with huIL-17RA-FLAG-polyHis [22], 330; with huIL-17RA-FLAG-polyHis [23], 5300. The MFI in assay [1] came to 9.

B6: AMH13/AML13 (antibody, IgG2, V domains shown)
VH: QVQLVESGGGVVQPGRSLRLSCAASGFTFSSYGMQWVRQAPGKGLEWVAVIWYDGNKKYYADSVKGRFTISRDNSKNTLYLQMNSLRAEDTAVYYCARGRVRDYYYGMDVWGQGTTVTVSS
VL: DIVMTQTPLSLSVTPGQPASIACKSSQSLLHSDGKTYLYWYLQKPGQPPQLLIYEVSTRFSGVPDRFSGSGSGTDFTLKISRVEAEDVGVFYCMQSIQLPLTFGGGTKVEIK
notes: human mAb from IgG2 XenoMouse mice; also called AM-13
B6: in assay [4], the “IL-17A/HFF bioassay IC50, subclone 13” value is above 10 nM. Moreover, the Kd in [9] was 7.6 nM. Moreover, in assay [14], the MFI was found to be 6. Moreover, in assay [15], the “% inhibition of IL-6 Production, IL-17A/HFF bioassay, non-clonal supernatant 1:4” value amounted to 73%; the “% inhibition of IL-6 Production, IL-17A/HFF bioassay, non-clonal supernatant 1:32” value was determined as 78%; the “% inhibition of IL-6 Production, IL-17A/HFF bioassay, non-clonal supernatant 1:128” value came out at 75%.

A word on the Kd: it is the concentration at which binding is half-saturated.
